This note sets out measurements from patent US20100260668A1 (published 2010).

For orientation: Kd means the constant that tells how readily two partners part at equilibrium. Read a low Kd as a tighter complex. As a reminder, the koff is the rate constant with which the complex falls apart. A low value points to a long-lived complex. By kon is commonly meant the second-order rate constant of association. A low value points to slow association.

The assay concerns the target T1, DLL4 ECD His tag (UniProt Q9NR61 27-529, limits assumed).
T1 construct: extracellular domain; also called DLL ECD His tag
Kind of assay: SPR (Biacore), DVD-Ig captured, DLL4 as analyte.

B1: DVD519 (bispecific antibody, human IgG1, kappa, lambda)
heavy: not shown
light: QAVVTQESALTTSPGETVTLTCRSSTGAVTTSNYANWVQEKPDHLFTGLIGGTNNRAPGVPARFSGSLIGDKAALTITGAQTEDEAIYFCALWYSNHWVFGGGTKLTVLGQPKAAPSVTLFPPDIQMTQSPSSLSASVGDRVTITCRASQDVSTAVAWYQQKPGKAPKLLIYSASFLYSGVPSRFSGSGSGTDFTLTISSLQPEDFATYYCQQSYTTPPTFGQGTKVEIKRTVAAPSVFIFPPSDEQLKSGTASVVCLLNNFYPREAKVQWKVDNALQSGNSQESVTEQDSKDSTYSLSSTLTLSKADYEKHKVYACEVTHQGLSSPVTKSFNRGEC
notes: HC linker long, LC linker long; also called DVD-Ig DVD519
Turning to B1, binding was put at a Kd of 2.83 nM, the koff came to 0.000472 s⁻¹ and the on-rate constant (kon) is 167000 M⁻¹ s⁻¹.

B2: DVD531 (bispecific antibody, human IgG1, kappa, lambda)
heavy: not shown
light: B1 light
notes: HC linker short, LC linker long; also called DVD-Ig DVD531
With B2, binding was characterised by a dissociation constant (Kd) of 3.47 nM, the koff is 0.000858 s⁻¹ and the kon stood at 248000 M⁻¹ s⁻¹.

B3: DVD525 (bispecific antibody, human IgG1, kappa)
heavy: not shown
light: QAVVTQESALTTSPGETVTLTCRSSTGAVTTSNYANWVQEKPDHLFTGLIGGTNNRAPGVPARFSGSLIGDKAALTITGAQTEDEAIYFCALWYSNHWVFGGGTKLTVLGQPKAAPDIQMTQSPSSLSASVGDRVTITCRASQDVSTAVAWYQQKPGKAPKLLIYSASFLYSGVPSRFSGSGSGTDFTLTISSLQPEDFATYYCQQSYTTPPTFGQGTKVEIKRTVAAPSVFIFPPSDEQLKSGTASVVCLLNNFYPREAKVQWKVDNALQSGNSQESVTEQDSKDSTYSLSSTLTLSKADYEKHKVYACEVTHQGLSSPVTKSFNRGEC
notes: HC linker long, LC linker short; also called DVD-Ig DVD525
As for B3, the Kd turned out to be 2.57 nM, the koff came to 0.00122 s⁻¹ and the kon was found to be 475000 M⁻¹ s⁻¹.

B4: DVD444 (bispecific antibody, human IgG1, kappa)
heavy: not shown
light: DIQMTQSPSSLSASVGDRVTITCRASQDVSTAVAWYQQKPGKAPKLLIYSASFLYSGVPSRFSGSGSGTDFTLTISSLQPEDFATYYCQQSYTTPPTFGQGTKVEIKRTVAAPDIVMTQSPDSLAVSLGERATISCRASESVDNYGISFMKWFQQKPGQPPKLLIYAASNQGSGVPDRFSGSGSGTDFTLTISSLQAEDVAVYYCQQSKEVPWTFGGGTKVEIKRTVAAPSVFIFPPSDEQLKSGTASVVCLLNNFYPREAKVQWKVDNALQSGNSQESVTEQDSKDSTYSLSSTLTLSKADYEKHKVYACEVTHQGLSSPVTKSFNRGEC
notes: HC linker short, LC linker short; also called DVD-Ig DVD444
B4 had a Kd of 2.37 nM, a koff of 0.00034 s⁻¹ and a kon of 143000 M⁻¹ s⁻¹.

B5: DVD456 (bispecific antibody, human IgG1, kappa)
heavy: not shown
light: B4 light
notes: HC linker long, LC linker short; also called DVD-Ig DVD456
For B5, the Kd is 1.66 nM, the koff turned out to be 0.000174 s⁻¹ and the kon was 104000 M⁻¹ s⁻¹.

B6: DVD466 (bispecific antibody, human IgG1, kappa)
heavy: not shown
light: DIQMTQSPSSLSASVGDRVTITCRASQDVSTAVAWYQQKPGKAPKLLIYSASFLYSGVPSRFSGSGSGTDFTLTISSLQPEDFATYYCQQSYTTPPTFGQGTKVEIKRTVAAPDIQMTQSPSSLSASVGDRVTITCRASQDVSTAVAWYQQKPGKAPKLLIYSASFLYSGVPSRFSGSGSGTDFTLTISSLQPEDFATTYYCQQSYTGTVTFGQGTKVEIKRTVAAPSVFIFPPSDEQLKSGTASVVCLLNNFYPREAKVQWKVDNALQSGNSQESVTEQDSKDSTYSLSSTLTLSKADYEKHKVYACEVTHQGLSSPVTKSFNRGEC
notes: HC linker short, LC linker short; also called DVD-Ig DVD466
For the molecule B6, the Kd amounted to 1.25 nM, the koff was 0.000139 s⁻¹ and the kon turned out to be 111000 M⁻¹ s⁻¹.

B7: DVD478 (bispecific antibody, human IgG1, kappa)
heavy: not shown
light: B6 light
notes: HC linker long, LC linker short; also called DVD-Ig DVD478
On to B7, for which the Kd amounted to 2.22 nM, the koff is 0.000167 s⁻¹ and the kon was determined as 75200 M⁻¹ s⁻¹.

B8: DVD495 (bispecific antibody, human IgG1, kappa)
heavy: not shown
light: DIQMTQSSSYLSVSLGGRVTITCKASDHINNWLAWYQQKPGNAPRLLISGATSLETGVPSRFSGSGSGKDYTLSITSLQTEDVATYYCQQYWSIPLTFGAGTKLELKRTVAAPSVFIFPPDIQMTQSPSSLSASVGDRVTITCRASQDVSTAVAWYQQKPGKAPKLLIYSASFLYSGVPSRFSGSGSGTDFTLTISSLQPEDFATYYCQQSYTTPPTFGQGTKVEIKRTVAAPSVFIFPPSDEQLKSGTASVVCLLNNFYPREAKVQWKVDNALQSGNSQESVTEQDSKDSTYSLSSTLTLSKADYEKHKVYACEVTHQGLSSPVTKSFNRGEC
notes: HC linker long, LC linker long; also called DVD-Ig DVD495
B8 gave a Kd of 0.263 nM, a koff of 7.91e-05 s⁻¹ and a kon of 301000 M⁻¹ s⁻¹.

B9: DVD507 (bispecific antibody, human IgG1, kappa, L234A L235A)
heavy: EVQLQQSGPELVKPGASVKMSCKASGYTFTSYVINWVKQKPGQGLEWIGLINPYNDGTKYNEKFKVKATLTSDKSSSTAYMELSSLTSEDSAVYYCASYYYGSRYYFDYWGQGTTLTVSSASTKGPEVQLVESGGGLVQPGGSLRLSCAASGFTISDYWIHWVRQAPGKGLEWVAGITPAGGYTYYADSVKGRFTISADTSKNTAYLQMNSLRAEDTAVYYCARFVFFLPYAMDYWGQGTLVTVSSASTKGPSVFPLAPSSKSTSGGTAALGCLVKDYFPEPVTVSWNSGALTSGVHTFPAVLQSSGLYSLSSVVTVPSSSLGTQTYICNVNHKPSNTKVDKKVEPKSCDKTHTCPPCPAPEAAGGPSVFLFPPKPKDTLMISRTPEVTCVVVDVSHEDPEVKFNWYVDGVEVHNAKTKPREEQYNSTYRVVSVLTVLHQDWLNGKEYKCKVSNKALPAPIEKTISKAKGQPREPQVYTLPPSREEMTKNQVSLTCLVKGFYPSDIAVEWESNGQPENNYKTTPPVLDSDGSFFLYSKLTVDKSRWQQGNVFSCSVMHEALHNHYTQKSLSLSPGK
light: B8 light
notes: HC linker short, LC linker long; also called DVD-Ig DVD507
B9 displayed a Kd of 0.265 nM, a koff of 7.16e-05 s⁻¹ and a kon of 270000 M⁻¹ s⁻¹.

B10: DVD472 (bispecific antibody, human IgG1, kappa)
heavy: not shown
light: DIQMTQSPSSLSASVGDRVTITCRASQDVSTAVAWYQQKPGKAPKLLIYSASFLYSGVPSRFSGSGSGTDFTLTISSLQPEDFATYYCQQSYTTPPTFGQGTKVEIKRTVAAPSVFIFPPDIQMTQSPSSLSASVGDRVTITCRASQDVSTAVAWYQQKPGKAPKLLIYSASFLYSGVPSRFSGSGSGTDFTLTISSLQPEDFATTYYCQQSYTGTVTFGQGTKVEIKRTVAAPSVFIFPPSDEQLKSGTASVVCLLNNFYPREAKVQWKVDNALQSGNSQESVTEQDSKDSTYSLSSTLTLSKADYEKHKVYACEVTHQGLSSPVTKSFNRGEC
notes: HC linker long, LC linker long; also called DVD-Ig DVD472
B10 came in with a Kd of 0.881 nM, a koff of 8.64e-05 s⁻¹ and a kon of 98000 M⁻¹ s⁻¹.

B11: DVD484 (bispecific antibody, human IgG1, kappa)
heavy: not shown
light: B10 light
notes: HC linker short, LC linker long; also called DVD-Ig DVD484
For B11, binding was put at a Kd of 2.96 nM, the koff stood at 0.000295 s⁻¹ and the kon is 99700 M⁻¹ s⁻¹.

B12: DVD450 (bispecific antibody, human IgG1, kappa)
heavy: not shown
light: DIQMTQSPSSLSASVGDRVTITCRASQDVSTAVAWYQQKPGKAPKLLIYSASFLYSGVPSRFSGSGSGTDFTLTISSLQPEDFATYYCQQSYTTPPTFGQGTKVEIKRTVAAPSVFIFPPDIVMTQSPDSLAVSLGERATISCRASESVDNYGISFMKWFQQKPGQPPKLLIYAASNQGSGVPDRFSGSGSGTDFTLTISSLQAEDVAVYYCQQSKEVPWTFGGGTKVEIKRTVAAPSVFIFPPSDEQLKSGTASVVCLLNNFYPREAKVQWKVDNALQSGNSQESVTEQDSKDSTYSLSSTLTLSKADYEKHKVYACEVTHQGLSSPVTKSFNRGEC
notes: HC linker long, LC linker long; also called DVD-Ig DVD450
Regarding B12, the affinity, expressed as Kd, was 7.41 nM; the dissociation rate constant (koff) amounted to 0.000251 s⁻¹; the kon was 33800 M⁻¹ s⁻¹.

B13: DVD489 (bispecific antibody, human IgG1, kappa, L234A L235A)
heavy: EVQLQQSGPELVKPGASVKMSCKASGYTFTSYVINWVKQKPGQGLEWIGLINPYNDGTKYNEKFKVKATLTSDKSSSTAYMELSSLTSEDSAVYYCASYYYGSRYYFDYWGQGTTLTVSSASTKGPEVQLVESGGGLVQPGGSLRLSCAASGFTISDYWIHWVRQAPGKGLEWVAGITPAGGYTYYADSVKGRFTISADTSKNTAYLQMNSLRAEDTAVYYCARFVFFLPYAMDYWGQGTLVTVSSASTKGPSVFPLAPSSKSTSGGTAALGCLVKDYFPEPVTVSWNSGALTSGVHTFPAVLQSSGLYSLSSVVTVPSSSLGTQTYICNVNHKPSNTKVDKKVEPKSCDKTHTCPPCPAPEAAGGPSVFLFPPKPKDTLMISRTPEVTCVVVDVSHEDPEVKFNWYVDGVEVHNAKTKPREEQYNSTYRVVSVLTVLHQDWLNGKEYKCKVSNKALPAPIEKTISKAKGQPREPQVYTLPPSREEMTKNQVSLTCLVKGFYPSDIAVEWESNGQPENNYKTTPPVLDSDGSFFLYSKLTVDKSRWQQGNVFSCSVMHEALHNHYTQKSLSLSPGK
light: DIQMTQSSSYLSVSLGGRVTITCKASDHINNWLAWYQQKPGNAPRLLISGATSLETGVPSRFSGSGSGKDYTLSITSLQTEDVATYYCQQYWSIPLTFGAGTKLELKRTVAAPDIQMTQSPSSLSASVGDRVTITCRASQDVSTAVAWYQQKPGKAPKLLIYSASFLYSGVPSRFSGSGSGTDFTLTISSLQPEDFATYYCQQSYTTPPTFGQGTKVEIKRTVAAPSVFIFPPSDEQLKSGTASVVCLLNNFYPREAKVQWKVDNALQSGNSQESVTEQDSKDSTYSLSSTLTLSKADYEKHKVYACEVTHQGLSSPVTKSFNRGEC
notes: HC linker short, LC linker short; also called DVD-Ig DVD489
B13 showed a dissociation constant Kd of 0.283 nM, a koff of 8.38e-05 s⁻¹ and a kon of 296000 M⁻¹ s⁻¹.

B14: DVD501 (bispecific antibody, human IgG1, kappa)
heavy: not shown
light: B13 light
notes: HC linker long, LC linker short; also called DVD-Ig DVD501
B14 had a dissociation constant (Kd) of 0.302 nM, a koff of 8.14e-05 s⁻¹ and a kon of 270000 M⁻¹ s⁻¹.
